Tests used:
[1] = molecular target: T1, CD19-His (human, UniProt P15391 20-291); assay: BLI (ForteBio Octet), CD19-His amine-coupled to AR2G sensor, scFv-hIgG1 in solution
T1 construct: Amine-coupled to AR2G biosensors for BLI; also called CD19-His抗原; not shown: His tag
T1 sequence (looked up): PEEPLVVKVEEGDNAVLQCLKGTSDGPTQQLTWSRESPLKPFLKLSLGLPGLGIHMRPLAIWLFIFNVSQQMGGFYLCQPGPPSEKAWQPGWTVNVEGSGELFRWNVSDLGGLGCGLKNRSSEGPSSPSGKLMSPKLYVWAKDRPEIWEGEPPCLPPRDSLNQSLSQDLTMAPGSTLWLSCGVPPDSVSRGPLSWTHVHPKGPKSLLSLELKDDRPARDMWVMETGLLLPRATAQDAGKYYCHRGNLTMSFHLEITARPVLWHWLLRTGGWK

[2] = molecular target: CD19 (antigen of the phage competition ELISA) (human) (UniProt P15391); assay: phage competition ELISA on CD19; competitor 3ug/ml FMC63mIgG2a, anti-mouse Fc detection
[3] = molecular target: T2, CD19 on Raji cells (human, UniProt P15391 20-556); assay: flow cytometry on Raji cells, anti-human IgG Fc-PE, MFI against concentration
T2 construct: whole, on cells; also called Raji细胞(CD19+)
T2 sequence (looked up): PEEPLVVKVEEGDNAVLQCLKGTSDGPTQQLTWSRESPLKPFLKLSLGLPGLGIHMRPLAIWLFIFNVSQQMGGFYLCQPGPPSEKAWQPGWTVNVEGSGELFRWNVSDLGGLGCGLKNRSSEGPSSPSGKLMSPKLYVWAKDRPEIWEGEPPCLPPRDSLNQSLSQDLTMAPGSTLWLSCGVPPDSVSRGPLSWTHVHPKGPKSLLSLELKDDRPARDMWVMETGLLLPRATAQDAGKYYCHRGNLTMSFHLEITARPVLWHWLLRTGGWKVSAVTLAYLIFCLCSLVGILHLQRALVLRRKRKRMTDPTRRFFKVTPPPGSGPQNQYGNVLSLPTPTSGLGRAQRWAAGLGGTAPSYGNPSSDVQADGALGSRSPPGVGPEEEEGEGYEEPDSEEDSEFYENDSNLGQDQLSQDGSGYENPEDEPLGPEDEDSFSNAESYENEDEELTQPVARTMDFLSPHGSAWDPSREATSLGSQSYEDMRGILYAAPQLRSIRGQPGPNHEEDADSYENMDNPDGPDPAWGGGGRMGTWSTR

[4] = molecular target: T2, CD19 on Raji cells; assay: flow cytometry on Raji cells, scFv-hIgG1, all four in one experiment

| Molecule | Response [1] | EC50 [3] | EC50 [4] | also measured |
| --- | --- | --- | --- | --- |
| NC (negative control in the scFv-hIgG1 BLI table) | 0.09 |  |  |  |
| NC (negative control in the phage ELISAs) |  |  |  | Emax(最大抑制率) [2]: 19% |
| 4B10-hIgG1 (Fc fusion, Secreted scFv-hIgG1Fc fusion from 293 cells, protein A purified; Junction between scFv and Fc not described; also called 4B10 scFv-hIgG1Fc融合蛋白; not shown: human IgG1 Fc (hIgG1Fc) from vector pGCIgGH1) EVKLQESGPGLVAPSQSLSVTCTVSGFSLEDYGVSWIRQPPRKGLEWLGVIWGSETTYYNSALKSRLTIIKDNSKSQVFLKMNSLQTDDTAIYYCAKHYYYGGSYAMDYWGQGTSVTVSSGGGGSGGGGSGGGGSDIQMTQTTSSLSASLGDRVTISCRASQDISKYLNWYQQKPDGTVKLLIYHTSRLHSGVPSRFSGSGSGTDYSLTISNLEQEDIATYFCQQGNTLPYTFGGGTKLEIT | 0.35 | 0.16 µg/mL |  | koff [1]: 0.000895 s⁻¹ |
| C21-hIgG1 (Fc fusion, also called 4B10&8A10组合突变; not shown: human IgG1 Fc (hIgG1Fc) from vector pGCIgGH1) EVKLQESGPGLVAPSQSLSVTCTVSGFSLEDYGVSWIRQPPRKGLEWLGVIWGSETTYYNSALKSRLTIIKDNSKSQVFLKMNSLQTDDTAIYYCAKHYYYGGSYAMDYWGQGTSVTVSSGGGGSGGGGSGGGGSDIQMTQTTSSLSASLGDRVTISCRASQDISKYLNWYQQKPDGTVKLLIYHTSRLHSGVPSRFSGSGSGTDYSLTISNLEQEDIATYFCQQGKTFPLTFGGGTKLEIT |  | 0.09 µg/mL | 0.23 µg/mL |  |
| 8A10-hIgG1 (Fc fusion, Secreted scFv-hIgG1Fc fusion from 293 cells, protein A purified; also called 8A10 scFv-hIgG1Fc融合蛋白; not shown: human IgG1 Fc (hIgG1Fc) from vector pGCIgGH1) EVKLQESGPGLVAPSQSLSVTCTVSGVSLPDYGVSWIRQPPRKGPEWLGVIWGSETTYYNSALKSRLTIIKDNSKSQVFLKMNSLQTDDTAIYYCAKHYYYGGSYAMDYWGQGTSVTVSSGGGGSGGGGSGGGGSDIQMTQTTSSLSASLGDRVTISCRASQDISKYLNWYQQKPDGTVKLLIYHTSRLHSGVPSRFSGSGSGTDYSLTISNLEQEDIATYFCQQGKTFPLTFGGGTKLEIT | 0.418 | 0.13 µg/mL |  | koff [1]: 0.000913 s⁻¹ |
| 7E11-hIgG1 (Fc fusion, not shown: human IgG1 Fc (hIgG1Fc) from vector pGCIgGH1) EIVMTQSPATLSLSPGERATLSCRASQDISKYLNWYQQKPGQAPRLLIYHTSRLHSGIPARFSGSGSGTDYTLTISSLQPEDFAVYFCQQGKTFPLTFGQGTKLEIKGGGGSGGGGSGGGGSQVQLQESGPGLVKPSETLSLTCTVSGFSLEDYGVSWIRQPPGKGLEWIGVIWGSETTYYNSSLKSRVTISKDNSKNQVSLKLSSVTAADTAVYYCAKHYYYGGSYAMDYWGQGTLVTVSS |  |  | 0.36 µg/mL |  |
| C2146-hIgG1 (Fc fusion, also called C2146 scFv-hIgG1; not shown: human IgG1 Fc (hIgG1Fc) from vector pGCIgGH1) EIVMTQSPATLSLSPGERATLSCRASQDISKYLNWYQQKPGQAPRLLIYHTSRLHSGIPARFSGSGSGTDYTLTISSLQPEDFAVYFCQQGNTLPYTFGQGTKLEIKGGGGSGGGGSGGGGSQVQLQESGPGLVKPSETLSLTCTVSGVSLPDYGVSWIRQPPGKGLEWIGVIWGSETTYYNSSLKSRVTISKDNSKNQVSLKLSSVTAADTAVYYCAKHYYYGGSYAMDYWGQGTLVTVSS |  |  | 2.63 µg/mL |  |

Source: patent publication CN107793480A (SHANGHAI JIBEI BIOLOGICAL TECH CO LTD, dated 2018)
